Data published in the domain aggregation screens of Martell et al. (2025).

Assay: soluble fraction after stress (log2 fold change); higher = more stays soluble; pooled small domains, quantitative proteomics
Details: stress: 75 degC
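Further: 20 min heating vs room temperature control held 20 min.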

Sequence | soluble fraction (log2)
HMTVDAVALGRRVRHLRKQAGLTLDQLAERTGVSGSHLSLVENARREPRLSLVQRIAEVLGVPVEDL | -1.49
HMTVGEKIQYYRKKIGLSQEELGQKMLLSRQTISLWEMDKTLPTVDNLLRLKEIFSVSIDELLSENEPK | -1.31
HMTVKNFNDLPGFKNENLAELKAMGITTISELAEALNDGGKIKEIIKNLSGVGPKTAEKWKDAIG | ≥ 1.04
HMTVKVPDLRGKTLAEMQRILDDAGLKYEINDSTFSRTAIPGTVREVIPAPGSEVKLGRILFIAINGF | -2.19
HMTVLIDEQSSDGLLKITVTANTAVKSITIADELLEDKEQLEDYLILVLNKAIARANQVNQTELDAVAK | 0.0536
HMTVPAGIVLSSIRQDGDVLHIRGTAQSTERLNFFRNSFSASWGSPAQNGKRKADPVTGLVDFTISLK | -0.758
HMTVPMKILILEDEQRNAMRLIRLLNDIDTTFIIEGPLTNIKEAVDFFQSGKTTDLILADIRL | -0.254
HMTVSADQTTADAVIKLIDAIGTVSKNSGSAISAARSGYDALTDAQKKLVTNYNKLTQAEQVFSSLS | 0.494
HMTVSLTDVPFVPEILDRLERPELDVLLAILNGATNTFDLAAKTGRSRDELDEVLDRLTTLGLIER | -0.532
HMTVTLTTLRNGSTGAQVKTLQRLLSAMDYYNGETDGKFGISTAAAVKAFQRAKRLTVDGIVGKNTWTALL | -1.2
HMTVTMADISQAYNEKRYLTTISLSNTYLTFAKPTTELLSIRYRTYFIIGKYAESLTEIAKL | 0.294
HMTVTTDITQYFLQENGLLNGPNARQLRQKIGETLNIGYTNGKQLLKRAQQFGLTRDQILTALKK | -0.638
HMTVVIKVQASQLESWKSSAGTEIKAKLIAVEDEKTYLFVTETGKTIRATAAQLDESSVSRARKLAGL | -2.37
HMTYGYFELKAKNLDSLKQFLKGIAQVESIEEENNGLKVFLKNELESEELSEKLAEAKIFVSHLAKKK | -0.265
HMTYKPAADFKPSDTSSLKEGMKVEHPKFGFGTVMKMEEVGTERKARINFADFGEKTLLLSFAKLKIHEN | -0.256
HMTYNEYPEKEMQDLIDKSISQQEQAASQYGYSLGDYVTARYGFQSESDFREYVQGLAEDYMKEKI | -0.476
HMTYQHQSIIHRRTRGAILTAAKELLAESGISGTNMIEIADRAQVSRASLYNHFRDKHEVFLALVES | -0.591
HMTYSAWIEKAYSELEKKGITEAELSDALDKRGINLEDLKLMGPDEAVKYQSEVEGVVLELSKSKE | 0.154
HMTYSEEEIERDLYVRGTLYQIGDLVENKIDGTSGEIVRRGPNYVQYSDGENFYKAFLHSIQEV | 0.0161
HMTYTMVAYGSQGDAVRQLQSELNRHGYQLDEDGVFGKKTRAAVRDYQKKNSLRLDGIAGDETWGSLLA | 0.696
HMTYTPRAGSLASQVIGFFRHNPDEELLLDDITDKFDATRGNIHTLLAEAVRFKLLARYRNDDGDYVYKPG | -3.06
HMVAADTVQVPDVTGKTVADAKQALISAGLQVGTVTAKDGKETANTILETSPAAGTSVDKGSKVNLVYSTG | 0.00808
HMVAAITDLPVKSVNGRQMYYYVVRKGETVYSLTHTLGITHDRLVKANRSVEDGLRAGQILYFPVSEFG | -2.95
HMVAELAEMAENKNITSAQLALAWILKQSENIIPIPGTKRIKYLNENIEAVNVDLSKEDVENIENLLRKYP | -0.104
HMVAGHLQEKNGQFYAVLSYKDTKGKRRTKWVPTGLMVRGNKKRAEAMLNDIRRKFVPPEQED | -0.474
HMVAGPDEPLSDREQGVLDLLAEGLSNKAISKQLGISVATVKSHLSNIYGKLQAENRMQAVARARELGLM | ≥ 1.04

Sequence | soluble fraction (log2)
HMVAISNTSGLAGVAYWIQSNIPKGIDIRKDNPGIVTIKNWIDEEYRKGRTTTISEEEMFKLVREYMPEL | -1.87
HMVAMGQRVVPLTHLSIDDVRRLLESTYGKDSGIEVTKPGTAAKGVIVTAPRTELDGIVALVKQA | -0.113
HMVAMYLRVGISNGRRYLSIVQGYRDQVTKKVRHNTVKSLGYLDDLEKHYPDPIAHFKAVVEEMNKKQALE | -2.04
HMVANDQILNQYGISDREAEIIGLLIEGLSNQQIAKQLYISPNTVKTHIKNIYAKVGVNNRLQLFSLLK | -0.435
HMVANLPFNYKVYAKKGKLYVVISYKDSNGKYKKKWIRTGLDEGTKKKEVNTVADQIAAEYYSSMRLE | -3.52
HMVAQQINDFRSERDASTGTLKRPLFDTLRDVISSRAQAYVSATGKPVTVEDLDRIYQAVEAEAKQAL | 0.0174
HMVDDELTARRRVNLRRIADELGGAAAVARKTQKSVQQISSMLNGTKSFGSKIARDIEPKLGLPLQSLDKE | 0.0147
HMVDDRPVTGTTLIREWQGRAYEVIVQAGHFEFQGQRYQSLSAIAKVITGTVWNGWAFFGLR | -0.415
HMVDDTGLPTVLISDGRLLERNLHRLHLDHTWLQRRLEENNIPSIQSLFLLTVDKQHQLYFLKK | -1.74
HMVDGTPALTDLKKVSKPGRRHYTGSQEIPRVLNGLGISIVSTSKGIMTGAQARRQKVGGELLAFV | 0.0345
HMVDIIMDLLEAVAQARPADAFIKSLHIQYQERGGLSKKQLQGLYGKAAKTAGIPPGKLATLEAIILKRP | -2.52
HMVDITPDLIRTLLERFGEYGVTKEHIEARIQRHIESILPAQVVQLRKTYNSLKDGMSQPSDWFDI | -1.9
HMVDLEINGRQTLQFVANKYGIPVEKLATDLNIPSDRFGEKLGRLRRQYAFTMNDVRKSILKNK | -0.588
HMVDPELFIWVESSKEPVYHLAYKIELFVHSTDPQDDVPVHRWQVFVDAHNGNILDKFDEVR | -0.292
HMVDPRWETPDENLAEQIKSVMPVMWVYDREAKSFVERPAIDFSFSIFERTTLYIYDKDGNEIGFAR | -0.0443
HMVDQVDKDRFLEALTQLGGSAGNVRLRETLQWEEEVYVIIKDALVKSGTILTGRGRGGSVLLASA | -0.95
HMVDSLTIGRRIRQLRTERGMTLEELAAAVGRAPSQLSMIENGRREPKLTLLQAIARALGSTLDALLE | -0.562
HMVDVNLLKYYVMESGKSLTDVAAAIGVTPATLHRKMSGESDFYRKEMQDIASYLGLDRDTIDRIFF | -1.84
HMVEDIVLTDAQIEFVKQQAKNGLSAFQISEMIWPEMSVKRFSKQHVAVLDFLREYEPAYVHDSE | 0.156
HMVEELDVQFIKLTVQGDHPWKNKKIRELSIPWDLLFVLIIRGDKSIIPNGKTTIKDGDIVVVSAPEYRG | -1.12
HMVEFLMESTNGMYGIVKEGSSYYVQKGINESSLDYIGGMFMKDKNRFSSYSTALKRLELISGQET | -0.419
HMVEGMQFDRGYQSPYFVTNAEKMVAELDNPYILLVEKKISSMKELLPVLEPVAQQGKSLLIISEEVEG | 0.0546
HMVEGTVKWFNDEKGFGFIEQEGGKDVFVHFSAINGSGRRTLHEGQRVTMEVTQGQKGPQAENVNP | 0.147
HMVEIPEFKITTFVNTDNEQIAEFENGFTDKKAEITFNNTKYVFKEKLPDQDGIRTYVYEELHE | 0.141
HMVELGMSQNEFIQKFGKPFNKEMAYTYDKHKRETLFYKEDLYRGSWFIVTTAFTFVDSKLVSQEIVREER | -3.36
HMVENMDEFIGRVRRLVSDRLDLLKEASDDEIRETISQVVLELSREQFLTLNEKKTVLEGVFNSMR | -0.944

Sequence | soluble fraction (log2)
HMVERLVVSPGAGVFAPNKAIANGTRISVGDVLGMVGEQEVRSLFDGVLQSFISVDGERLTAHQPVAWLRT | -0.587
HMVEVPKVAGMSTAQGVSELEQKGFVVNRTESYDDTVPKGNIISQTPEGGTKVPSGSAVTIKISQGAE | -0.159
HMVEVPNVIGMTKPELTQQFVNLKLDGSGEGDVVVQQSPSEGSKVKEGSTVRVYFG | 0.128
HMVEVPNVSNLTLEQAENKLIQQGLQVKLEGQGEKVVAQIPQPGAVVNKKSTVILF | 0.258
HMVFLPDEIFRLKVIKAGEGPEQGVGYLDDGTMVVIEGARDRIGDELEVRVTSTLQTNAGKMIFTKFE | -0.548
HMVGEPEPIRYSRFLDEMKSGKLDSVVIQGDTILGVRKDKSQFKTVNPETDYSALIGALDKAGVGIEGRA | 0.132
HMVGEYTVKKGDTLWKIAGQTLGSPLRYAEIYELNKDVIEEAALGRGKKNSSNGHWIFQGTVLKIPA | -0.188
HMVGIAEAMKHIADEDYGDLSAIFKQIFSDTDGGRNFSDAIRTQMRSTDSSGLRKVLSTLIMSIEE | -0.651
HMVGNEEALRAIVESIIAQNTTEVASFREGKEGLIGWFLGQVMRQTGGKADPKLARQILLELLKQ | -0.449
HMVGNYYDILGVPETATQDAIKKAFRSLAQQHHPDKNPDDPGAEAMFKKVSEAYQVLSDPDKRQTYDASL | -0.00926
HMVIDFYDPQTKVIHEIKKSSAKEEAHVWQVKYYIYLFEKEEIMGVKGVLEYPLLREIVSVNF | 0.19
HMVINQRKLNLLSIYSSGSEKRAIILFPTGQTKFVKVGDTLDGGRVAAIGTSEIRYLKGGNNLVLRIPG | -2.64
HMVINTRHTGFVVDDLERFINFYLGLGLKLISRKVESGEYIDKLVGLKGTKLEWAKLSLPDNSMIEILKYH | -0.508
HMVIREVNDNPVSAEELRLGDRVKVLSLGQNGEIVTLPDEKGELTVQVGILKAKVNLDDIMLI | -0.177
HMVISAKRMQDRRDSILDAAREAFARAGFEGTSIADIARRAGVSDGLVYRYFASKRDLLNAVLTA | -1.61
HMVIVGGDVIVHYVDTEGKKISDDVVKSGNVGEDYSTDQKTILGYRFKEVQGNTSGKFTDKTQVVTYIYT | 0.649
HMVKEVKVPDVEGLTTEEAIKELKKYGLAYTTKSEENTDIEEGKVIRTEPKKGSTKVKGSTVTIIESSG | 0.451
HMVKFGERVKQLRLSAGMTQEQLAERIWVTKAAISNYELSERNPSPETIIKIAGVFGVTTDYLLGLED | -1.9
HMVKIVWSKEGPYVGTRVRRYFSQGPVDGTVVMYAKPQKGDDVALWRISHDDGDEEDLEEQELRLAID | -1.06
HMVKLQATPSQRKTLDELYVQLKKLEPTAKEDLSLLRRLENSHLVSKQEAQGLISKAIGRVGALAVEQQP | 0.0219
HMVKNTIHVDLKGEVNKPGVYEVEEGTIVNDLITLANGFTKNAYQDNINLSKKLTDEMVIVVSKKGS | 0.476
HMVKNVVIPDVSNKAPVDASNQLTDLGFEVVTEYKYIASDTIEEGKVVKTSPEIGSKRKYGQKITLYISSG | -1.23
HMVKRAYGEYVNVKLTDADLSKLKADFPADWQERIERLSTYMASTGKTYKNHLATIRNWARRDAERVSA | 0.958
HMVKVSVYPNPAVDRITISGEVKAYAVYDATGKVVMKDTDYRGGAIGVSHLPAGIYIVRTDAGAVTVNK | -0.595
HMVLSVRDRMVQILDQVKTGEYKRIEDFFSADEGRTGFVVSFVAILELVKGGLLTITQSKNLAPIYVRLPN | -0.0123
